Assays:
[1] = tested on: HeLa cells; assay: Association of human SCC1 with chromatin (quantitative immunoblotting of chromatin and supernatant fractions); type: cell-based; settings: HeLa cells arrested in metaphase by nocodazole (56% in logarithmically growing cells)
Description: In some experiments logarithmically growing HeLa cells were treated with 330 nM nocodazole dissolved in 0.1% DMSO for 18 hours, or cells synchronized by double-thymidine treatment were released into nocodazole-containing medium for different periods of time. In control experiments 0.1% DMSO was added without nocodazole. Chromatin and supernatant fractions were prepared from HeLa cells that were either growing logarithmically (log) or were arrested in metaphase with nocodazole (noc). Proteins from equivalent aliquots of these fractions were separated by SDS-PAGE and analyzed for the presence of SCC1 by immunoblotting using radiolabeled antibodies (FIG. 8, top panel), The intensities of the SCC1 bands were quantitated (FIG. 8, bottom panel).

[2] = tested on: HeLa cells; assay: SCC1 cleavage and securin degradation in synchronized HeLa cells released into the cell cycle in the presence of nocodazole; type: cell-based, human; settings: double-thymidine synchronized, immunoblot
Description: For cell cycle synchronization, a double-thymidine treatment was used. HeLa cells were first treated with 2 mM thymidine for 18 h. Subsequently, cells were washed with PBS, fresh medium was added and the cells were grown for another 8 h. Then the cells were treated again with 2 mM thymidine for 18 h, subsequently washed and incubated in fresh medium. Samples were taken at different time points. Samples were splitted and used for FACscan analysis and for immunoblotting. Cell extracts were made with glass-teflon potters in ice cold buffer containing 50 mM Tris pH 7.7, 100 mM NaCl, 20 mM b-glycerophosphate, 5 mM MgCl2, 1 mM NaF, 0.1-0.2% Triton X-100, 10% Glycerol, 1 mM DTT and protease inhibitors).
In some experiments logarithmically growing HeLa cells were treated with 330 nM nocodazole dissolved in 0.1% DMSO for 18 hours, or cells synchronized by double-thymidine treatment were released into nocodazole-containing medium for different periods of time. […]
HeLa cells stably expressing SCC1-myc were synchronized by double-thymidine treatment and were released into the cell cycle in the presence of either DMSO (results shown in FIGS. 11A and C) or nocodazole dissolved in DMSO (results shown in FIGS. 11B and D). […] Cells were analyzed by FACsan (FIGS. 11A and B) and by immunoblotting of whole cell extracts using the indicated antibodies (FIGS. 11C and D). […]

[3] = biological target: T1, Scc1p R180D R268D double mutant, HA tagged (non-cleavable Scc1p), Q12158
T1 chain: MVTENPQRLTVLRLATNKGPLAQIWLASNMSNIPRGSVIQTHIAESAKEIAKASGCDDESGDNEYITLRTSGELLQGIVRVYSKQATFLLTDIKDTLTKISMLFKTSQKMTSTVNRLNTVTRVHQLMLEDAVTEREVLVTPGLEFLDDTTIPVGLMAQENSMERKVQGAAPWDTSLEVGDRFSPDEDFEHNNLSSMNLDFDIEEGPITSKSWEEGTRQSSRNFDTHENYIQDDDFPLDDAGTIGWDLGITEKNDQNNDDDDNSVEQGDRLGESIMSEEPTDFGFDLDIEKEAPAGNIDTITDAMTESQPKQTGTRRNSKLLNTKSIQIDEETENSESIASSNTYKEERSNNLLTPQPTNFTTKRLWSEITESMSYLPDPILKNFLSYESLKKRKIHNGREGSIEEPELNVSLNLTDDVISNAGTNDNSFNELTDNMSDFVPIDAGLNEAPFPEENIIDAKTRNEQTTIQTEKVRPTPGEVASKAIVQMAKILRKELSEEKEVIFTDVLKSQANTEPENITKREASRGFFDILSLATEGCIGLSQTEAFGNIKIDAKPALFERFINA

[4] = biological target: T2, Scc1p with arginine 268 mutated to aspartic acid, HA tagged, Q12158
T2 chain: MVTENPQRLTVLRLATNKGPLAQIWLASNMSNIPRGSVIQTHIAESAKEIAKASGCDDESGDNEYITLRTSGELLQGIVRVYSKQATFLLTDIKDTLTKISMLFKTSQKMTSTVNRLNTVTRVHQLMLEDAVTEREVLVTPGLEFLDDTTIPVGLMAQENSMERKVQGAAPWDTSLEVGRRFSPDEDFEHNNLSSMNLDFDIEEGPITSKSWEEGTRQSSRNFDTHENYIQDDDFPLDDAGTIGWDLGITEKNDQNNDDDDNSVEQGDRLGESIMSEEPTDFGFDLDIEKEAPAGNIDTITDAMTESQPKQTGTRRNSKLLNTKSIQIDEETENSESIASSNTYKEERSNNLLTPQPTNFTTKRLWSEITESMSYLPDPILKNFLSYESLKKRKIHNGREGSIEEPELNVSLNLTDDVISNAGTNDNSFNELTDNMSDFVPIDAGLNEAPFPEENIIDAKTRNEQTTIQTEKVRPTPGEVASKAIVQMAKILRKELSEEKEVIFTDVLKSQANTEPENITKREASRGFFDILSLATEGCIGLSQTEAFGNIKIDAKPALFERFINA

[5] = biological target: T3, Purified recombinant Scc1 with C-terminal FLAG epitope, from okadaic acid treated insect cells, mitotically phosphorylated form, Q12158
T3 chain: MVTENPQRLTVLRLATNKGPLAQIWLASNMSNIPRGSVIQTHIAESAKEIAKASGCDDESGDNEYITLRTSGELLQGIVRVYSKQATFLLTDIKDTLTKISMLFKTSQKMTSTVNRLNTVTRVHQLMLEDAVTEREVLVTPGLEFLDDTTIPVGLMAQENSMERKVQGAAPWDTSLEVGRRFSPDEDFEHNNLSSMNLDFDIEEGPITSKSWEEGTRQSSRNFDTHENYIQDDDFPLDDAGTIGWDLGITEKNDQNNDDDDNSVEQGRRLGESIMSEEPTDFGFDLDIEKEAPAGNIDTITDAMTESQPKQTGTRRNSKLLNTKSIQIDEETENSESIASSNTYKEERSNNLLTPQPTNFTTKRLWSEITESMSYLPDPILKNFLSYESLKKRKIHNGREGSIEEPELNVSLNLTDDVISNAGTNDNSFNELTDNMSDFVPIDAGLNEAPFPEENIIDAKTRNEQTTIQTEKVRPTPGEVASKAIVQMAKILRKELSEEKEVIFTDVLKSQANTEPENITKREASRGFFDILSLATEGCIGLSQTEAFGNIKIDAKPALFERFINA

[6] = biological target: T4, Scc1p tagged with myc epitopes at the C-terminus (endogenous wild type), Q12158
T4 chain: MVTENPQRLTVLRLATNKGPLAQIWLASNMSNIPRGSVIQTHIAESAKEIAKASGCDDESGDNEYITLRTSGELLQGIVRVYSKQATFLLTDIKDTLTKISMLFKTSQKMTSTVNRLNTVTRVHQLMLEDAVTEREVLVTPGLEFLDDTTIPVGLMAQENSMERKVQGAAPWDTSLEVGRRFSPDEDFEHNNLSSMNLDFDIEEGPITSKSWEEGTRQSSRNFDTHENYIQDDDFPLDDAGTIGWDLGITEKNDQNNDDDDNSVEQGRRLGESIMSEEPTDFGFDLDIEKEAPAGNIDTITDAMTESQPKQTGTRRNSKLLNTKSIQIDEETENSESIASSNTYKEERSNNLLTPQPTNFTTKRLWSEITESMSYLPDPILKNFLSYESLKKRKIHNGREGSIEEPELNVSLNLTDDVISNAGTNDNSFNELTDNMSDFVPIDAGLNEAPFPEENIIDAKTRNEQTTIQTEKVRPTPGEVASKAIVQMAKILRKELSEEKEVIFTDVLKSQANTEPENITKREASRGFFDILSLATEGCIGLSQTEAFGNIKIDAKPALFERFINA

[7] = biological target: T5, Purified recombinant Scc1 with C-terminal FLAG epitope, from baculovirus-infected insect cells, unphosphorylated, Q12158
T5 chain: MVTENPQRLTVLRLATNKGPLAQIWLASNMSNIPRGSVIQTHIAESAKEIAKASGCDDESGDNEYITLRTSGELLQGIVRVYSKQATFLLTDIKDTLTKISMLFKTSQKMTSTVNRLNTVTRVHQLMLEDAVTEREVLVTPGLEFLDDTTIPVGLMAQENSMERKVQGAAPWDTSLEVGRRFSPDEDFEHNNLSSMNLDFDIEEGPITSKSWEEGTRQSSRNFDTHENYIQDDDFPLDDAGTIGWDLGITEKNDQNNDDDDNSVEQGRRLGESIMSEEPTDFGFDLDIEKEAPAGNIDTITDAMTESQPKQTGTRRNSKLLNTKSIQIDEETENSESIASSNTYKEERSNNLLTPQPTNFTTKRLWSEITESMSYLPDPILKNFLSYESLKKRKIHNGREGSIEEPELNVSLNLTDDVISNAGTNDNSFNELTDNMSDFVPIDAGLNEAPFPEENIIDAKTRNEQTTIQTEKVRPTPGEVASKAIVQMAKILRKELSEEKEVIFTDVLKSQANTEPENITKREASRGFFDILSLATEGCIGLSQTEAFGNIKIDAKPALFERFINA

[8] = biological target: T6, Scc1p tagged with multiple HA epitopes, chromatin-bound (chromatin of nocodazole-arrested yeast), Q12158
T6 chain: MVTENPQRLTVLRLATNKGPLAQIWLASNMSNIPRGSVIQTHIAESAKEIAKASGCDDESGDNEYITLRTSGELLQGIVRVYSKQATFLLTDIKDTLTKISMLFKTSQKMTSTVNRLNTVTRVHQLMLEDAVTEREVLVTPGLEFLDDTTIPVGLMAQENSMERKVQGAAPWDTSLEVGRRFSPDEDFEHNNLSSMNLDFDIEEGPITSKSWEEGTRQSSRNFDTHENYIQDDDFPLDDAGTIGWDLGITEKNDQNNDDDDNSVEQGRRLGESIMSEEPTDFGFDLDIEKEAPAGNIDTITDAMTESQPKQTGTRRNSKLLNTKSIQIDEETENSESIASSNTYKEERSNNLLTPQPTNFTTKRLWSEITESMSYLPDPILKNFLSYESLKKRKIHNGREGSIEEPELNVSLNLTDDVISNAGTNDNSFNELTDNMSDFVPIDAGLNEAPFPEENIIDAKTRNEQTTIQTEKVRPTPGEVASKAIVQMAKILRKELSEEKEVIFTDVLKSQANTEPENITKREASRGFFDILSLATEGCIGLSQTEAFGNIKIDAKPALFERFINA

Molecule: COC(=O)Nc1nc2ccc(C(=O)c3cccs3)cc2[nH]1 [nocodazole]
- amount of the total cellular SCC1 associated with chromatin [1]: 13%
- cleavage of SCC1 [2]: no cleavage of SCC1 could be observed
- securin degradation [2]: not degraded

B1: Esp1p (yeast separin), wild type, overproduced from the GAL1-10 promoter in yeast cell extract (protein)
chain: MMVKQEEPLNEISPNTPMTSKSYLLNDTLSKVHHSGQTRPLTSVLSGDASSNSIGILAMHNNIIRDFTKIASNNIDLAIEDITTVDHSLNSIYSLLKSHHMWGHINSTVKQHLMIIVKLINNNALGLASSEIIFLFNETNLFQAHSLKNILLADFSTWNDYYLSNLKILALQIILKRKLVDEYLPHILELFSHDKRYLLKDPNLKAHALTKIVLSFFSVTTSCKVLFGLKFLQYIKQFKLPFKKFISNITVECFSKNLLHKNYLEMGPNKIYLNSFYLSYSMLYDGLDKIMLLDILSYEETTEVQRAIKSKKEFNEYCNMSENRLLWSCISVDDLNVILENATNFLQNKGKHISATLKCLVCLWSTIRLEGLPKNKDILRQFDCTVIYINSNIKSINDESAAALLSELLGVLSEICIDYKEPKRLSNIISVLFNASVLFKSHSFLLKTANLEISNVLISNDSKTSHRTILKFEKFISSAQSAQKKIEIFSCLFNVYCMLRNDTLSFVFDFCQNAFIHCFTRLKITKFIEFSNSSEIMLSVLYGNSSIENIPSENWSQLSRMIFCSLRGIFDLDPLELNNTFDKLHLLNKYELLIRIVYLLNLDMSKHLTTNLSKITKLYINKWLQKSDEKAERISSFEMDFVKMLLCYLNFNNFDKLSIELSLCIKSKEKYYSSIVPYADNYLLEAYLSLYMIDDALMMKNQLQKTMNLSTAKIEQALLHASSLINVHLWDSDLTAFQIYFGKTLPAMKPELFDINNDHNLPMSLYIKVILLNIKIFNESAKLNIKAGNVISAVIDCRKAQNLALSLLKKKNKLSQGSRLALLKSLSFSFFQLIKIHIRIGSARDCEFYSKELSRIISDLEEPIIVYRCLHFLHRYYMITEQTCLQNITLGKANKAFDYLDAEADITSLTMFLYDNKEFVKLEQSLVLYFGDQLEKTFLPNLWKLHLGKDIDDSICLSEYMPKNVINRVHNMWQKVMSQLEEDPFFKGMFESTLGIPSSLPVIPSTMPNNILKTPSKHSTGLKLCDSPRSSSMTPRGKNIRQKFDRIAAISKLKQMKELLESLKLDTLDNHELSKISSLSSLTLTILSNITSIHNAESSLITNFSLTDLPRHMPLLFDKVLNNIDNKNYREFRVSSLIAPNNISTITESIRVSAAQKDLMESNLNINVITIDFCPITGNLLLSKLEPRRKRRTHLRLPLIRSNSRDLDEVHLSFPEATKKLLSIINESNQTTSVEVTNKIKTREERKSWWTTRYDLDKRMQQLLNNIENSWFNGVQGFFSPEVVDNSLFEKFKDKFYEILHQNLPSRKLYGNPAMFIKVEDWVIELFLKLNPQEIDFLSKMEDLIYFVLDILLFHGEENAYDEIDFSMLHVQLEEQIKKYRATMTTNSIFHTFLVVSSSCHLFPWECLSFLKDLSITRVPSYVCLNKLLSRFHYQLPLQVTIEDNISMILNPNGDLSRTESKFKGMFQKIIDAKPSSQLVMNEKPEEETLLKMLQNSNLFVYIGHGGGEQYVRSKEIKKCTKIAPSFLLGCSSAAMKYYGKLEPTGTIYTYLLGGCPMVLGNLWDVTDKDIDKFSEELFEKMGFRCNTDDLNGNSLSVSYAVSKSRGVCHLRYLNGAAPVIYGLPIKFVS
- Scc1p cleavage in Esp1-containing extracts (chromatin substrate) [3]: HA tagged double mutant protein was no longer cleaved when incubated in Esp1-containing extracts
- Scc1p cleavage in the Esp1 assay (chromatin substrate) [4]: cleavage at site 268 was indeed eliminated by the aspartic acid mutation. However, the mutated protein was still cleaved in an Esp1-dependent manner
- cleavage assay using purified Scc1 (Western blot, anti-FLAG) [5]: the efficiency of cleavage was much greater when Scc1 was in the mitotically phosphorylated state
- Scc1p cleavage in Esp1-containing extracts (chromatin substrate) [6]: the myc tagged wild type protein was efficiently cleaved
- cleavage assay using purified Scc1 (Western blot, anti-FLAG) [7]: Both unphosphorylated and phosphorylated purified Scc1 were cleaved in an Esp1-dependent manner in vitro
- Scc1p cleavage and dissociation from chromatin in vitro (Western blot of chromatin and supernatant fractions) [8]: most disappears from the chromatin fraction upon incubation with extracts containing high levels of wild type Esp1 protein
